Experimental findings from publication PMC8791620 (Science Advances, 2022) are described below.

Sequences and labels used below:
B4: Trs130 (subunit of TRAPPII) (natural protein, S. cerevisiae, UniProt Q03660 1-1102, looked up)
chain: MDKEIYCGSVPVSYFDPFDLFESLRPEFQQILPLDNIHWKAFDGTVRTVNRLPIELIPEGRGEADKSNDEQPFIRFLIVNCISIDQYRAKVRPLVRQWLPNLESVSSSTGEKMIYKPIILLYANSEVVDSNLFKSVSLMEKFGKDFPHVQTLEVRSVYRSPKERQEFWNQFSQKIKASVLSIFQKRLTHLQHSLANLQKGNNFEEQLLTREKLYELYVVFNILEDASLELQKIKKEILRRNMNMPDGKLQVPFESSSKSDESLGSIIIEGTLDKFQLHKYFFIRRLRLLKLEDQTLTAFVGAFQLIKNFIESISIEYRKSVRLLEFKHYFITSMLSYFEFENVSNPLLCEIKAELLMLKRDNWVQGVMATSGYRLMDKNYPNSDVKYKFDLLKETFVDETVFQENFLTLTKEILSLFNKCEGKRQRIVDILSIEIGLLYYQGKKYEEAVSLFLSCYEYYTQTNWNSIGLKILQVFIDSLSHCPKLDVLQIDGESVSASAVLTNAFLNILKLCKDNDSKEIWWKKFMDLQMKNNIHLMYPLDGLFEVTLNSKVHLARANVSAIEVNLKSYGFPEDISTKTMRLSLKNMGGDVIVFGASDFLLKKGENKLILECRDIMYGEFSLLSFEIIVEGITFVKEFPENQDEFIVVPEIYCKESTKVLVKQAHNLNLGEYALELKSVQSDALESLQVEVEVQKNIGNMKNLPVSFSMDEIQARKRYNTPFENVRLEYYLLDQITAFDLIIKTSFTKKNDQGTFGETKKVRIQCYLQLSVSVEDIFKKDIFFFKFLLNSSVREEPVILYSSELSAPDTRNDYNIRGDYIATTPALITFDGNESFINCYEITANNNFDSKDIFNLKVRYNTLKEQLDCFITDAVLIEGDVEWFILFEKWKTFWELEILKKLKYDYDAFKENRIIRLLKTSIDLNKTKSKIRNLCIEKAVLDKILICLNKVSRGIAVCNTDMDEYVRNLVPKQLTVPVQLPGFEQFFHVQFEQMETSHDALHDTIATIGNSLSYTVIVENLSGQWGQDVIDDGGYIFEILSSNEWLIHGQKRCAIKEKRKEFEVHLIPLKKGYLNFPRVEITNINGKSCRVDHSNAFESILIF

What all share (test): cryo-EM structure
For experiment [1], the target named is B4.
Experiment [2] concerns the target T1, Trs33 (subunit of core TRAPP/TRAPPI in TRAPPII) (S. cerevisiae, UniProt Q99394 1-268).
T1 sequence (looked up): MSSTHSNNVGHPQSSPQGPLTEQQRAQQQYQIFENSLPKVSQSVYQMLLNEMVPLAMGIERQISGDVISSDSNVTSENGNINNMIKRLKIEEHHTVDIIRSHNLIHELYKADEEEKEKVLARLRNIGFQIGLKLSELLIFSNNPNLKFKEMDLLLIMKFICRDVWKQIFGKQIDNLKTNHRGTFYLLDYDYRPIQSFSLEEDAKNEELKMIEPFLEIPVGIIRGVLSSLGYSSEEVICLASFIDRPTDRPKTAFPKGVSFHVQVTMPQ

Experiment [3] has as its target T2, Trs31 (subunit of core TRAPP/TRAPPI in TRAPPII) (S. cerevisiae, UniProt Q03337 1-283).
T2 sequence (looked up): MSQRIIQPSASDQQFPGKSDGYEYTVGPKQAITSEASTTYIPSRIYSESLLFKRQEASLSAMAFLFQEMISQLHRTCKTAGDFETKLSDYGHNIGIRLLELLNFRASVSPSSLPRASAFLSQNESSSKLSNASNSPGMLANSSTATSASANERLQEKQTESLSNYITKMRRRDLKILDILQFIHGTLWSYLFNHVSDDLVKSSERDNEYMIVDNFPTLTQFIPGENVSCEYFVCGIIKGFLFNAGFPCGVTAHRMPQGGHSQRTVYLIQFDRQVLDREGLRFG

Experiment [4] concerns the target T3, Trs120 (3xFLAG-tagged, subunit of TRAPPII) (S. cerevisiae, UniProt Q04183 1-1289).
T3 sequence: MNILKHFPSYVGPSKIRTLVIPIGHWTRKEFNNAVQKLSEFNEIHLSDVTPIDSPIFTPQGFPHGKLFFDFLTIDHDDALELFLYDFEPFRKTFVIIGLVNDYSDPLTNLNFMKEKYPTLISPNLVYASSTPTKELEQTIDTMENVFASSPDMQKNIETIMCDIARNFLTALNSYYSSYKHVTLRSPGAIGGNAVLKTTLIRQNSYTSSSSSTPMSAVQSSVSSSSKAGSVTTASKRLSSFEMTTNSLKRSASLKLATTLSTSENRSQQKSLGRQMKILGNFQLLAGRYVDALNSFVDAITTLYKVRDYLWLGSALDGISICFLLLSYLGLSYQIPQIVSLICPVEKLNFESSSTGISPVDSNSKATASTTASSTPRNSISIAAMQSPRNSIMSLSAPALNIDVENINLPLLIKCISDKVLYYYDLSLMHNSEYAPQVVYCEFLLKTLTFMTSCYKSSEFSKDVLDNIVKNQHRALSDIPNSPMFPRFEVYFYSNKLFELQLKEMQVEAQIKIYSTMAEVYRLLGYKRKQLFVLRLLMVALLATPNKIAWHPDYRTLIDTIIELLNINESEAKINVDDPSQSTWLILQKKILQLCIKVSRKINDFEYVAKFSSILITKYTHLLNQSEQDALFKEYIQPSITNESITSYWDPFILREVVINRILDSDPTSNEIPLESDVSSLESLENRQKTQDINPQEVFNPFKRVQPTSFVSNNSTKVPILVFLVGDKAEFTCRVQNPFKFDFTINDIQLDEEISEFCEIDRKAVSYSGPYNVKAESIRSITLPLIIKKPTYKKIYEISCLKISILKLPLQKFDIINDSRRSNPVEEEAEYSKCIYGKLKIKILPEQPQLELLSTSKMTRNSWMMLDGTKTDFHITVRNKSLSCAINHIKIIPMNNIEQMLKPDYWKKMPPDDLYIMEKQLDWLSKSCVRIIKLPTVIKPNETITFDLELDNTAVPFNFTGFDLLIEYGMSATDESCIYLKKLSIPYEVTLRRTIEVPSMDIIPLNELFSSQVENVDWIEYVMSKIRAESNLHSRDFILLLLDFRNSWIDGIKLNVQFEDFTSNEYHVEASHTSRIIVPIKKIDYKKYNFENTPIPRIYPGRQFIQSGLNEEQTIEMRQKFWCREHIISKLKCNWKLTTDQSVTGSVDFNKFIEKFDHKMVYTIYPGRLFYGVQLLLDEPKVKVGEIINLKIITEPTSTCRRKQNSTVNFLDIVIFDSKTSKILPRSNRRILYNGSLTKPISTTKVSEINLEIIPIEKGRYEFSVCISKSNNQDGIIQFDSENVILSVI

B1: Tca17 (subunit of TRAPPII) (natural protein, S. cerevisiae, UniProt P32613 1-152, looked up)
chain: MSLRPCFVSLIDESDKPILIYVPNEAENEMNDVLKYNVLSNISLDYFESALVEWHSLDSKPLLKSIFQLEGVSVFAMLIKQTGLKIVIGFEQKSLSGADDEFEAINQIFETVRKIYIRVKCNPLLVSGDEKSIIKSLERKFDELFISTEVEL
Regarding B1, the binding result in experiment [1] and in experiment [2] was “binds” in each case.

B2: Trs20 (subunit of core TRAPP/TRAPPI in TRAPPII) (natural protein, S. cerevisiae, UniProt P38334 1-175, looked up)
chain: MPQYFAIIGKKDNPVYEIEFTNAENPQGFPQDLKELNPFILHASLDIVEDLQWQINPTSQLNGNGGNGSNGGGGFLRSRAVNNTDNCYLGKVDHFYGLAITAYISYSGMKFVMIHGNSANSSVVIDDNNMRSFYQEVHELYVKTLMNPFYKITDPIRSPAFDSRVRTLARKHLSK
For the molecule B2, the binding result in experiment [3] and in experiment [4] was “binds” each time.

B3: Trs65 (subunit of TRAPPII) (natural protein, S. cerevisiae, UniProt P32893 1-560, looked up)
chain: MECFVPLRCDLDGSNIEQLRQSHLSRKFIIFDEQLNLWLWFQGNSQENKRFVLQNMIILINEAQVTRTSTIDDYFTQVENNENLWRLKNDCCSKILFKSNVVMNNGYNNQIKFVFEYKSVDANFNNQDSLQDPQAKYTLDKYSSEEILPSFEPVYSWSSAATKSSKNTNNHLEKNNRATHRVSSKNSEVHEADVSRNPNTFTLKLQYPIFSLLNMRLRNISLKSEHCILSSLDFQTSKASEQLTKKFIYPQEHNSFLKLNFQEISYKLIDGTSQIELDPICPLKVPLTAFSYDSISATFKLVLLPKSTQPHRVKITLAYELELHPNLKLPVRTSWETEVTLKRSMPISSTSSQYSSNNNNTNHSASFNGAANNVNSGGLANLRLGGVSSSRFSLGAASTTSLVNSKLSNVKFKFINSNIKVIKGEKFTMRLQIINSSSSPLDLVVYYNNTINPIPSANNVRNSNGINNCGMNNGTIPNSPLTLENQYQLHNKYRKIAEGIILLSNDYKIPVVPPRETYFADLRFIGIMSGYYGTLSGLKVLDLNTNELIEVGNGASVLIQ
Regarding B3, the binding result in experiment [1] and in experiment [4] was “binds” in each case. With B4, the binding result in experiment [4] is listed as “binds”.
